By stoichiometry N is commonly meant a count of units in the complex or per binding partner.

In the test the target is Chikungunya virus (CHIKV) strain S27 E1 glycoprotein (Chikungunya virus strain S27). Briefly: cryo-EM structure; cryo-ET with sub-tomogram averaging (PEET) of 591 protein spikes on liposomes after completed fusion with CHIKV at low pH, late time points, room temperature; 27.2 Å at 0.5 FSC; 3-fold symmetry seen before it was imposed.

The substance “Chikungunya virus (CHIKV) strain S27 E1 glycoprotein (natural protein)” registered a stoichiometry N of 3.

The values above are taken from PMC9378758.
